Molecular target: Flag-PTEN

B1: Neural Precursor Cell Expressed Developmentally Down-Regulated Protein 4 polypeptide (NEDD4-1) (protein)
chain: MATCAVEVFGLLEDEENSRIVRVRVIAGIGLAKKDILGASDPYVRVTLYDPMNGVLTSVQTKTIKKSLNPKWNEEILFRVHPQQHRLLFEVFDENRLTRDDFLGQVDVPLYPLPTENPRLERPYTFKDFVLHPRSHKSRVKGYLRLKMTYLPKTSGSEDDNAEQAEELEPGWVVLDQPDAACHLQQQQEPSPLPPGWEERQDILGRTYYVNHESRRTQWKRPTPQDNLTDAENGNIQLQAQRAFTTRRQISEETESVDNRESSENWEIIREDEATMYSNQAFPSPPPSSNLDVPTHLAEELNARLTIFGNSAVSQPASSSNHSSRRGSLQAYTFEEQPTLPVLLPTSSGLPPGWEEKQDERGRSYYVDHNSRTTTWTKPTVQATVETSQLTSSQSSAGPQSQASTSDSGQQVTQPSEIEQGFLPKGWEVRHAPNGRPFFIDHNTKTTTWEDPRLKIPAHLRGKTSLDTSNDLGPLPPGWEERTHTDGRIFYINHNIKRTQWEDPRLENVAITGPAVPYSRDYKRKYEFFRRKLKKQNDIPNKFEMKLRRATVLEDSYRRIMGVKRADFLKARLWIEFDGEKGLDYGGVAREWFFLISKEMFNPYYGLFEYSATDNYTLQINPNSGLCNEDHLSYFKFIGRVAGMAVYHGKLLDGFFIRPFYKMMLHKPITLHDMESVDSEYYNSLRWILENDPTELDLRFIIDEELFGQTHQHELKNGGSEIVVTNKNKKEYIYLVIQWRFVNRIQKQMAAFKEGFFELIPQDLIKIFDENELELLMCGLGDVDVNDWREHTKYKNGYSANHQVIQWFWKAVLMMDSEKRIRLLQFVTGTSRVPMNGFAELYGSNGPQSFTVEQWGTPEKLPRAHTCFNRLDLPPYESFEELWDKLQMAIENTQGFDGVD
in vitro ubiquitination of Flag-PTEN (E1, E2, ubiquitin; western blot with anti-PTEN antibody), NEDD4-1 alone: incubation of purified NEDD4-1 alone could not efficiently promote PTEN K27-linked poly-ubiquitination | in vitro ubiquitination of Flag-PTEN, WWP1 and NEDD4-1 both present: in the presence of both WWP1 and NEDD4-1, PTEN was robustly K27-linked poly-ubiquitinated

— US20190374506
